What was measured:
human IgE (human) [1] = target: human IgE (human) (UniProt P01854); test: ELISA relative potency; GI-301 dialyzed into 10 mM His/HCl pH 6.7, 250 mM proline
human IgE (human) [2] = target: human IgE (human) (UniProt P01854); test: ELISA relative potency; GI-301 dialyzed into 10 mM His/HCl pH 6.7, 250 mM mannitol
human IgE (human) [3] = target: human IgE (human) (UniProt P01854); test: ELISA relative potency; GI-301 dialyzed into 10 mM Tris/HCl pH 7.4, 250 mM proline
human IgE (human) [4] = target: human IgE (human) (UniProt P01854); test: ELISA relative potency; GI-301 dialyzed into 10 mM His/HCl pH 6.7, 250 mM trehalose
human IgE (human) [5] = target: human IgE (human) (UniProt P01854); test: ELISA relative potency; GI-301 dialyzed into 10 mM Tris/HCl pH 7.4, 250 mM mannitol
human IgE (human) [6] = target: human IgE (human) (UniProt P01854); test: ELISA-based potency on human IgE; GI-301 100 mg/mL, 250 mM proline, histidine/HCl pH 6.7, no additive; after 35° C., 200 rpm, 5 days; n=2
human IgE (human) [7] = target: human IgE (human) (UniProt P01854); test: ELISA-based potency on human IgE; GI-301 100 mg/mL, 250 mM proline, histidine/HCl pH 6.7, no additive; after 35° C., 200 rpm, 14 days; n=2
human IgE (human) [8] = target: human IgE (human) (UniProt P01854); test: ELISA-based potency on human IgE; GI-301 100 mg/mL, 250 mM proline, histidine/HCl pH 6.7, 0.1 w/v % Tween 80; after 35° C., 200 rpm, 5 days; n=2
human IgE (human) [9] = target: human IgE (human) (UniProt P01854); test: ELISA-based potency on human IgE; GI-301 100 mg/mL, 250 mM proline, histidine/HCl pH 6.7, 0.1 w/v % Tween 80; after 35° C., 200 rpm, 14 days; n=2
human IgE (human) [10] = target: human IgE (human) (UniProt P01854); test: ELISA-based potency on human IgE; GI-301 100 mg/mL, 250 mM proline, histidine/HCl pH 6.7, 20 mg/mL methionine; after 35° C., 200 rpm, 5 days; n=2
human IgE (human) [11] = target: human IgE (human) (UniProt P01854); test: ELISA-based potency on human IgE; GI-301 100 mg/mL, 250 mM proline, histidine/HCl pH 6.7, 20 mg/mL methionine; after 35° C., 200 rpm, 14 days; n=2
human IgE (human) [12] = target: human IgE (human) (UniProt P01854); test: ELISA-based potency on human IgE; GI-301 100 mg/mL, 250 mM proline, histidine/HCl pH 6.7, no additive; after light stress (7.5 hours, 750 W/m^2); n=2
human IgE (human) [13] = target: human IgE (human) (UniProt P01854); test: ELISA-based potency on human IgE; GI-301 100 mg/mL, 250 mM proline, histidine/HCl pH 6.7, 0.1 w/v % Tween 80; after light stress (7.5 hours, 750 W/m^2); n=2
human IgE (human) [14] = target: human IgE (human) (UniProt P01854); test: ELISA-based potency on human IgE; GI-301 100 mg/mL, 250 mM proline, histidine/HCl pH 6.7, 20 mg/mL methionine; after light stress (7.5 hours, 750 W/m^2); n=2
human IgE (human) [15] = target: human IgE (human) (UniProt P01854); test: ELISA-based potency on human IgE; GI-301 100 mg/mL, 250 mM proline, histidine/HCl pH 6.7, 0.1 w/v % Tween 80 and 20 mg/mL methionine; after 35° C., 200 rpm, 5 days; n=2
human IgE (human) [16] = target: human IgE (human) (UniProt P01854); test: ELISA-based potency on human IgE; GI-301 100 mg/mL, 250 mM proline, histidine/HCl pH 6.7, 0.1 w/v % Tween 80 and 20 mg/mL methionine; after 35° C., 200 rpm, 14 days; n=2
human IgE (human) [17] = target: human IgE (human) (UniProt P01854); test: ELISA-based potency on human IgE; GI-301 100 mg/mL, 250 mM proline, histidine/HCl pH 6.7, 0.1 w/v % Tween 80 and 20 mg/mL methionine; after light stress (7.5 hours, 750 W/m^2); n=2

Sequence of UniProt P01854 (P01854 other isoform, or with tags, fused parts or gaps): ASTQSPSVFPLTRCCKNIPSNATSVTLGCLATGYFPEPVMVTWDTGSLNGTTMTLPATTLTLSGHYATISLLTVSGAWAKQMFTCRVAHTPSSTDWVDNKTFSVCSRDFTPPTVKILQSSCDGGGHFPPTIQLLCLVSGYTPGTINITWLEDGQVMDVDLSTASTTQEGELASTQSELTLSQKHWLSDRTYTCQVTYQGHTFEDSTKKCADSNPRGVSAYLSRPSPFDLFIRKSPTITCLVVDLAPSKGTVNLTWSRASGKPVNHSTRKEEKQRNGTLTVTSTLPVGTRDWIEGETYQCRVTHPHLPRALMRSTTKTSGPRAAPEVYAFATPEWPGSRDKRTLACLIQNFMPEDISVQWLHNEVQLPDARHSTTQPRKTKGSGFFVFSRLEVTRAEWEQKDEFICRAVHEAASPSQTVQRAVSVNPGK

B1: GI-301 (fusion protein dimer comprising FcεRIα ECD and modified Fc region) (Fc fusion, not shown: small tags and cut ends)
chain: VPQKPKVSLNPPWNRIFKGENVTLTCNGNNFFEVSSTKWFHNGSLSEETNSSLNIVNAKFEDSGEYKCQHQQVNESEPVYLEVFSDWLLLQASAEVVMEGQPLFLRCHGWRNWDVYKVIYYKDGEALKYWYENHNISITNATVEDSGTYYCTGKVWQLDYESEPLNITVIKAPREKYWLQSHTQPLGVFLFPPKPKDTLMISRTPEVTCVVVDVSQEDPEVQFNWYVDGVEVHNAKTKPREEQFNSTYRVVSVLTVLHQDWLNGKEYKCKVSNKGLPSSIEKTISKAKGQPREPQVYTLPPSQEEMTKNQVSLTCLVKGFYPSDIAVEWESNGQPENNYKTTPPVLDSDGSFFLYSRLTVDKSRWQEGNVFSCSVMHEALHNHYTQKSLSLSLGK
- potency ELISA [%] (relative potency) (human IgE (human) [1]): 101%
- potency ELISA [%] (relative potency) (human IgE (human) [2]): 98%
- potency ELISA [%] (relative potency) (human IgE (human) [3]): 106%
- potency ELISA [%] (relative potency) (human IgE (human) [4]): 103%
- potency ELISA [%] (relative potency) (human IgE (human) [5]): 92%
- relative potency by ELISA (human IgE (human) [6]): 79.7%
- relative potency by ELISA (human IgE (human) [7]): 105%
- relative potency by ELISA (human IgE (human) [8]): 92.1%
- relative potency by ELISA (human IgE (human) [9]): 80.4%
- relative potency by ELISA (human IgE (human) [10]): 113%
- relative potency by ELISA (human IgE (human) [11]): 74.2%
- relative potency by ELISA (human IgE (human) [12]): 110%
- relative potency by ELISA (human IgE (human) [13]): 110%
- relative potency by ELISA (human IgE (human) [14]): 112%
- relative potency by ELISA (human IgE (human) [15]): 94.3%
- relative potency by ELISA (human IgE (human) [16]): 111%
- relative potency by ELISA (human IgE (human) [17]): 111%
